The source of these data is paper PMC9241672.

The term Kd denotes the concentration at which binding is half-saturated. A high value points to lower affinity.

The series deals with His-ArgR2 (Lactiplantibacillus plantarum AR195). Kind of series: BLI. Particulars: ArgR2 256-4097 nM; BLI: 10 mM HEPES pH 8.0, 2 mM MgCl2, 0.1 mM EDTA, 200 mM KCl, 1 per mille (w/v) BSA and 2 per mille (v/v) Tween 20 in protein buffer; temperature not stated. ….

Turning to cla promoter probe, the Kd is less than 1 pM.
